# Test results reported in IntAct's records for PubMed 24698088.
# B1: Serine protease HTRA2, mitochondrial (Homo sapiens), O43464 (parent)
# chain: MAAPRAGRGAGWSLRAWRALGGIRWGRRPRLTPDLRALLTSGTSDPRARVTYGTPSLWARLSVGVTEPRACLTSGTPGPRAQLTAVTPDTRTREASENSGTRSRAWLAVALGAGGAVLLLLWGGGRGPPAVLAAVPSPPPASPRSQYNFIADVVEKTAPAVVYIEILDRHPFLGREVPISNGSGFVVAADGLIVTNAHVVADRRRVRVRLLSGDTYEAVVTAVDPVADIATLRIQTKEPLPTLPLGRSADVRQGEFVVAMGSPFALQNTITSGIVSSAQRPARDLGLPQTNVEYIQTDAAIDFGNSGGPLVNLDGEVIGVNTMKVTAGISFAIPSDRLREFLHRGEKKNSSSGISGSQRRYIGVMMLTLSPSILAELQLREPSFPDVQHGVLIHKVILGSPAHRAGLRPGDVILAIGEQMVQNAEDVYEAVRTQSQLAVQIRRGRETLTLYVTPEVTE
# partner: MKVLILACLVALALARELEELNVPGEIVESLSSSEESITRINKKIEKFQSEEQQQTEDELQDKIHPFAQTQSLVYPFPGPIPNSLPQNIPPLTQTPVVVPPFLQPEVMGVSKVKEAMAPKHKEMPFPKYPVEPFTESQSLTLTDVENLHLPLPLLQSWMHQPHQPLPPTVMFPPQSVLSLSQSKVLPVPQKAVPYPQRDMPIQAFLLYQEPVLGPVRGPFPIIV
# Variants of: B1
# Conditions: with casb_bovin CSN2, P02666
row,effect of a mutation on the interaction,Variant
1,decreasing interaction,G363A
